# Experiment: soluble on expression in E. coli; label from the status in PepcDB or PDB records
row,Sequence,soluble on expression in E. coli
1,MNKTSKAYQPLLSSKAKIAIIGGGVAGSTIALRFAELGLDTTLIEKGPSLVNGPPICHLHAGGNLYREICDEQCLTLLKQSIDTVKVYPQSVNIRPTVIALPKTDNGQPEDLLPRLEKLRAKYSELVAQDSRNKVLGEPENYFKFYSRTELDALLDLPLPKTAKNDSDWLVAFAQHVDLDSLKFPVLLVQEYGLSAFRFAAIASLAIEGLPSCHLQTNKQVIAIVQQKNSLGWQVSTQALPQHQQSPTIIHQHFDYVINACGFKSGEIDDMVSAKRKRMVEFKAAYVAHWPQCQGLWPEIVFYGERGTPQGMAQLTPYPDGYFQLHGMTQDITLFDQGLVASSLESAQPQLAKRFIEKIDKKWPEQLVHNRTLGSIEHIAQFISAFSSAEVAAKPLFGAQQIPGEDADLRAADVSFYGQHYARAEIVKASSALAAGDAILKNLVDCGLIAALELGRYLTEHYFPVSQQCSEIEVTERAIMLAKQREYPIALAKNLLEHHHHHH,soluble
2,MYIIAHRGASGYAPENTIAAFDLAVKMNADMIELDVQLTKDRQIVVIHDDRVDRTTNGSGFVKDFTLEELQKLDAGSWYGPAFQGERIPTLEAVLKRYHKKIGLLIELKGHPSQVGIEEEVGQLLGQFSFSINNIVQSFQFRSVQRFRELYPSIPTAVITRPNFGMLSRNQMKAFRSFANYVNIKHTRLNRLMIGSINKNGLNIFAWTVNNQKTAAKLQAMGVDGIVTDYPDFIIKDGKHENILEHHHHHH,not soluble
3,METASKRPKSGAAKKPAAAKARGDGPSYLDGQLLIAMPVMEDERFARSVIYICAHSSEGAMGIIVNRPAGSIDFPELLVQLDIVEKPEQIKLPDHAESMKVLRGGPVETGRGFVLHSSDFFIKDATLPIDDGICLTATVDILKAIAGGTGPKHAILALGYAGWAPGQLENEIQENGWLHCDADADLIFGDDIEEKYDRALHKLGIEPGMLSAEAGHALEHHHHHH,soluble
4,MGSDKIHHHHHHMKITLNSVSFRYNGDYVLKDVNAEFETGKIYVVVGKNGSGKTTLLKILAGLLEAEGEIFLDGSPADPFLLRKNVGYVFQNPSSQIIGATVEEDVAFSLEIMGLDESEMRKRIKKVLELVGLSGLEKEDPLNLSGGQKQRLAIASMLARDTRFLALDEPVSMLDPPSQREIFQVLESLKNEGKGIILVTHELEYLDDMDFILHISNGTIDFCGSWEEFVEREFDDVEIPFKWKLWKKCGKINLWEDRYENSGNQRRRDTV,not soluble
5,MGSDKIHHHHHHMETIERHFRCNEGSAADYAAQLREVGTVMLPAYVAFDAHELAHIDALQARLPEEPVTAGDAGDTHDIYVRRIMVDRAGERPQLVNRPHSEPILALLTDARRTRFFGDMFGANAEYFIRRCQINRMLKDSFIGLHLDAASNPDYEFSVVIQLGREFDGGEFVVHPEGRLPNVFAPTYGTVIVTSCMHRHEVRSVRANERTSLVYFYARHNGVNRRAN,not soluble
6,MADETELKRLYWHSRRGMLELDVLLVPFVQEVYPGLDAEDQARFRKLLECEDQDMFGWFMQRGEPEDADLRRMVRMILDRVQPD,not soluble
7,MKALTARQQEVFDLIRDHISQTGMPPTRAEIAQRLGFRSPNAAEEHLKALARKGVIEIVSGASRGIRLLQEEEEGLPLVGRVAADEPLLAQQHIEGHYQVDPSLFKPNADFLLRVSGMSMKDIGIMDGDLLAVHKTQDVRNGQVVVARIDDEVTVKRLKKQGNKVELLPENSEFKPIVVDLRQQSFTIEGLAVGVIRNGDWL,soluble
8,KAQKLNEQHQLILSKLLREEDNKYCADCEAKGPRWASWNIGVFICIRCAGIHRNLGVHISRVKSVNLDQWTAEQIQCMQDMGNTKARLLYEANLPENFRRPQTDQAVEFFIRDKYEKKKYYDKNAIAI,soluble
9,MTKEERISRATELFKSGYNCSQSVVAAFADMYGFTEEQALRMAASFGGGIGRMRETCGAACGMFLLAGLEKGAIDGADREGKAANYALVQELAAEFKKRNGSLNCGELLGLKKKAPVSSEPEARTEQYYAKRPCSKMVEEAARIWAEYLEKEKK,not soluble
10,MGKKKFIENEDGTTEVQETESEAPKDKKEKKEYRLRTLGANIKTSKKSFKEQFFMNYEDGLKLIKKMRGKGKGGQLVQKVMPRHISLPYHMSGKAAMEEACDWIAQNTVGKYRKEYKGIVVAVGSVDLASAPRVISDQYAFHTDVAINQIVFIPKIGDQYEAKVKYVQEGLMVGVVMDMITIHIKQNDKTSEDQVAIDDKILVKYSGIRIKSSLCHLKGEYVKMIEKAEIKEEEEVEDEADEETDVKEKVKEEEDEDEDMEE,not soluble
11,MNLLQRALVFTGGHISRYQAVIAVNSVGKNARFYSTTDDNMAAPEESVVAKDEMKRFMVECMTKVGATESHATQLALVLLEGDIRGHYSHGLNRLDMYVRDIEQNVCKGDGEPIILKEKAGTAWVDGNNLLGPVVGNFCMDLAIEKAKNAGIGWVVAKGSNHYGIAGWYALRAMKKGMLGMSMTNTSPISFPTRSAVPALGTNPISLAAPGTGDDSFVLDMASTTVAIGKVELAARKENPVPLSWGVGEGGKETTDPTKVLYGGGLLPLGGVEVSGGYKGYGLSSMIEIFCGILAGAHWGPHVRKWMSTKSEADLGQCFVAIDPEAFAPGFADRLQDFMQTMRALPTSSPSFKVEVAGDMERRHEALVEQLGGIPYHKNQITFVNDLAAKLGVKTVDLVQ,not soluble
12,MAHHHHHHMPHIPRNHYLVVHDAIRKLLGPDAQLAAFVKAQHAFQCDMLVNDARTDPEELTRAGARHSGGGIGDDAAAKAGVGELARGLQAVLGICDVVPHTRRVDVIFRDRSLIQLALGAAKRDLPYALETGADVNQEPDWRLRNRLRISLGYDEELFLAQCTRSMNVAARILEKCAFDYARYSALMSTNAAMAAMYEASGQRWQAVLPPVTYWQAHCYSLMKAYPCRHYQQIVATVEHNFAAYYGEFPMTNPYCDGEDLNTIQVVRWLCEAFNAGAAVSHVTSAASSPVTVNEWQTVDCSMPAAMEDGDAEKGAAVMDNMADGRSSQEGRH,not soluble
13,MQYNPLGKTDLRVSRLCLGCMTFGEPDRGNHAWTLPEESSRPIIKRALEGGINFFDTANSYSDGSSEEIVGRALRDFARREDVVVATKVFHRVGDLPEGLSRAQILRSIDDSLRRLGMDYVDILQIHRWDYNTPIEETLEALNDVVKAGKARYIGASSMHASQFAQALELQKQHGWAQFVSMQDHYNLIYREEEREMLPLCYQEGVAVIPWSPLARGRLTRPWGETTARLVSDEVGKNLYKESDENDAQIAERLTGVSEELGATRAQVALAWLLSKPGIAAPIIGTSREEQLDELLNAVDITLKPEQIAELETPYKPHPVVGFK,soluble
14,MSEIHAGGCHCGRLRYQFDAPLKDIAHCHCSICWRTSGATVVTWISVPLASFKWLTGSPAAYDSAATCVRYFCGNCGAHMALFTRNSPNEMDVTIATLDQPELAVPSRHIWIENRLPWLHLDEDLPGDEGEP,not soluble
15,GPGSMDVSKRPREELHKEQCLSFVKKLWAADTLAMFHYPVSATEVPGYYDVVETPMDLSTIRKNIEQGTYRTDAEVENDVVLMLSNALDFNEKGSQWHDLAKQFKKQYLTLARESGLSFDADQAFIPTKKVRDDESTLRKAEKKGEEKLEDVLQAMEKDKEIPLEQLRAMYARRTTRGKADQQSSDFSSGRGNDDSDEVVSSDEEDTSDSGSGSYDTEEDEDSLDSESASKDDDDDK,soluble
16,SMSNANPFFSQSLAERDASVRGAILKELERQQSQVELIASENIVSRAVLDAQGSVLTNKYAEGYPGKRYYGGCEFADEVEALAIERVKRLFNAGHANVQPHSGAQANGAVMLALAKPGDTVLGMSLDAGGHLTHGAKPALSGKWFNALQYGVSRDTMLIDYDQVEALAQQHKPSLIIAGFSAYPRKLDFARFRAIADSVGAKLMVDMAHIAGVIAAGRHANPVEHAHVVTSTTHKTLRGPRGGFVLTNDEEIAKKINSAVFPGLQGGPLMHVIAGKAVAFGEALTDDFKTYIDRVLANAQALGDVLKAGGVDLVTGGTDNHLLLVDLRPKGLKGAQVEQALERAGITCNKNGIPFDPEKPTITSGIRLGTPAGTTRGFGAAEFREVGRLILEVFEALRTNPEGDHATEQRVRREIFALCERFPIY,soluble
17,MSIVMSAGKGVTQVVERCEAAKESGFLDLSSCQLMYMADAVYMLIKGYEITKVSIQDNGFKKFPKKFVIKFPTATILNMANNEISEIPEEVATWTSLKGLNAAKNKISKFPEPFLQLKNLIYLDLNGNQLEEIDVDLFYSSLPALIKLNLSGNEGLGDETKKKLKALKPEKLDLIL,not soluble
18,MDPTQHRKAARPCDARRVLVLQGGGALGAYQAGAYQALCHHDFEPQWLAGISIGAINAAIIAGNPREQRVEKLKQFWEMASSPVPWQPLLRDDHVHSLFNETSAAMIATFGVPGFFTPRFPPTHLLPSGKPSNLSYYDTAPLRSTLERLVDFDRLNHNGIRLSVGAVNIATGNFVYFDTTKQIIGPEHIMASAALPPGFPAIEIDGEHYWDGGVASNTPLDYVL,not soluble
19,MGSDKIHHHHHHMTLLIVGATGTLGRQVARRAIDEGYKVRCLVRSPKRAAFLKEWGAELVRGDLCQPQTLAEALEGVTAVIDAATSRATDSLTIKQVDWEGQIALIQAAKAASVERFIFFSIIDADKYPEVPLMEIKRCTELFLAESGINYTVLRLAGFMQGLIGQYGIPILEGQPVWVTGASSPVAYMDTLDIAKFAVRALSVPETEKQAFPVVGTRAWSAEEIINLCERLSGKEAKVRRMPINLLRAVRGLAKFFQWGWNIADRLAFTEVLASGRPLNASMDEVYTVFGLEKEQSTTLESYLQEYFSRILKKLKQLDYEKTKTKKQKDKKTPFKKVNS,not soluble
20,MEEALKENIMGALEQVVDPELGVDIVNLGLVYDVDMDEDGLTHITMTLTSMGCPLAPIIVDEVKKALADLPEVKDTEVHIVWNPPWTRDKMSRYAKIALGIQLEHHHHHH,not soluble

# Source: the DeepSol protein solubility set
